Assay results from the domain aggregation screens of Martell et al. (2025).

assay: soluble fraction after stress (log2 fold change); higher = more stays soluble; pooled small domains, quantitative proteomics; conditions: stress: 50 degC
Method in brief: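 Pooled custom libraries of small protein domains were measured in a high-throughput format, with quantitative proteomics as the read-out. Each library was stressed at 50°C. Aggregation propensity is given as the base-two logarithm of the fold change in how much of each protein stays soluble after the stress. Higher values mean a larger share of the protein remains in solution.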

| Sequence | soluble fraction (log2) |
| --- | --- |
| HMEMLQRFIFLENVSSTQVESAIKELHPNLNLKRVKLSFPGADTVLLKGPKQDLELAEELIRHLDRSE | -0.0342 |
| HMKQAINFSDLNSLEEGLGIAIRQKWNEVSINDVPEDKIELVEDWINNNRGKYKGINISIGSTY | 0.167 |
| HMQALDNNDALEEIIKKVITENPSQVTEFRNGKDSLMNFLVGKVMAASGGKANPKTLPETIEKIIK | 0.12 |
| HMAEPYDEDKVMEHLYIKGKDVVIAHLKHLKEHNEHVWLKKGVEWMQKNQDRLGFDMMEVIYVVHNH | -0.0166 |
| HMNIWNEWAFKKWIESDEYTGPDMTDFGHRTLVDEEFSKQYKEQMSLFKERVLTDDEFSAKYGDL | -0.66 |
| HMKSILDDVVGLGPVRKKALLSAAGGFRKLRDMDVDEVIGLGAVPEEVAREVVTVLAQYNGERDRVEGL | -0.0545 |
| HMTETELYDEVNRLIGLHLSERDRMILIMRDRDEFEIDAIAARTGLSEGNIRLILSRARRTVREAYRNNI | -3.74 |
| HMGLVDSLEPLLRRVYEALPQRRSMTTERLAVAAGLDEESVKVALARLQLSAFVGVDERGWHRSL | -1.11 |
| HMTEPIESVTTIAGRRIPYRLVRSLRARRMRMTIKESQVTVTLPRGVPLGEAERFLQQNAAWLFKQLDKP | -2.22 |
| HMGDIFTAEDAKERIDYSGVDGIMLARGIFGNPWLIRDIREYLEYGKILHPVTQLDRVNMAIEHTRKT | 0.0388 |
| HMVVMEIGANGSEVVKLQKRLNQLGYYTEHASGVYDVKTASAVNEFQRQNELNATGKADYTTLDMIYNQ | 0.02 |
| HMGMSMNEFLNNRLEQLAVEAVDKSSLGEEIFFYAEPATINLFKDAVDEDEYKVVFPVLKSIIEVEQKLSR | -1.03 |
| HMLETILQIGKDGVGENLVKQVNDALEARELIKGRVLDNNLELDARTAAQILAKATRSEVVQVIGTKFV | -0.0922 |
| HMSDESALLELVKQIIADNPKAVEEIRAGKEKAMGFLIGQAMKASRGSANPQIISRLVREQLG | 0.128 |
| HMEDMMKALLDVVRAQHTATEGSEERPFDINDIIDMALNITGRPEEPEEQQELSDTIQKLAESLAPDIFP | -0.356 |
| HMLLNLSPIETQVLRLIQQDKKVTYESIGKELTIGQTKVYKVLGHLKELNVIERIGGRTYGHWHILL | -1.03 |
| HMQDVVFTVDKDQTGAEIGDMLYEKGIISSPTTFRLALRLTGSMDKLQQGYYQIPQNASLRQVIALLQKG | -0.393 |
| HMAVGDMISKLRTAANMSQEQFAELFGVTRQSVQKWENSFSVPELEKLIKISKYFDVSLDALVLRSDARVT | -1.06 |
| HMPYNRRYLISNADGALYTVEENGLVKLEETNLTAELFETRGMQDIPDGKLLITLHDPTILYWHDSENLFP | -1.19 |
| HMYSRQRDLILKALRENVVHPTADFIYTVLKEKEPNLSLATVYRNLNLLANEGIIRKIEGLDGVAHFDH | -1.46 |
| HMKTFSTRLIALREAIGVNQSELARRVGVTPQAVQKWESGANGPRGKRLEKLASELRSTVGYLVSGEGDG | -0.446 |
| HMKSKNILLGEYKGKEVHVGEGKYGPFILYDKKFKSIGAYLTENSLMLKDLTIEDYSKIMKFTENSNSKS | -0.651 |
| HMQQEPNFYIVDGNTNQIVDRYYAPDSNVAHQYLGQWRQQHDPQETGNYRYGRLSSETEERYRNLAA | 0.236 |
| HMENLRLSELTVERGHRLAGRTLADIASAPNSPKYLIVLIQRGQETVIPTGSTVILPGDVLILAQS | -0.605 |
| HMSVTVPDVKRMQAEDAKALLSRYRLRSEVIDSVYVDNIPRGAVVEQIPRENSSVKENRIVFLTINSN | -0.363 |

| Sequence | soluble fraction (log2) |
| --- | --- |
| HMDRFRYYITEDSVQRGTYPYVDETTLKRFTSQLHKYEQGMISAYGYLEYSKPLTAEQIKDYTLMPSP | 0.0317 |
| HMIEGSSDWKPNMILDDGGDLTKIIHEEYQDLLDDIRGLSEETTTGVLRLYEMEKENSLAVPAINVND | 0.276 |
| HMANDNFPLKLGSKGPRVLQLKTMLIQSLSNDALPKGRSSDAFDSELEALLSRNNLPTVIDETNFRVLTK | 0.386 |
| HMNHTIEENDRVLILDPRGKKYLITVTNRVFHTNLGKLDISELIGKNYGDKIKSHMGKNFSILKPNLIDYI | -0.0858 |
| HMDTERLYAYAWQTHLKQFGLNISEEEIRQFVGVDDRIVHSFYAKTVPLDDFENTMFSLGEIIQQSL | -2.99 |
| HMKEEDLPREYTDILGNSVHERLNIMIHDIIEHSQDKPEVAMSPEREEAMHGLRRWMFDHVYH | -0.202 |
| HMKRVPFAFAGDMLRWAAWLYHVEKRTQNEIAEELEVSRQTVANYLSEAMSQGLVQVQLRSDIIE | -1.52 |
| HMFLTPLEETRLAIEEVVIAKNIAIDLFPRESAIRKQQHELIYHYHLKGLTVGTEKNKRLRIFPRGY | -0.000251 |
| HMTTTSGLIKTIQTGRRKLGMDDETYRALLADVSGGKTSSKDLNAYQLKEVLRRMREAGFRS | 0.218 |
| HMRQDEKTLLYWIGAQVKREGKLIKTSTAQYLVEKTGTDMENLEKELEKLFAYTLDEKEITPAAIDEI | -1.8 |
| HMTKPLHELLSQREFQVFTQLAAGRSVGEIAQQLSLSSNTVSTYRARILEKTGTRNDVELALYAIRR | -1.52 |
| HMGMKTSQKLARQREIVRLIRAQTIRTQAELADALRERAFPVSQPTLSKDIAELGLIKVPLPDSGYRYQLP | -0.378 |
| HMETVSFNPDIAVIPDYRHVVILGETTKTIANKYDIPVDILKAANPGLGNNVTKGDRLRVPDKTKLQ | 0.155 |
| HMGGKWKLRILLALENSAQDALRYGEIKNIVSGITDMMLSQSLRELTADGLIERRQYQEIPPKVEYRLS | -2.51 |
| HMKMHKIIKERRLALNFTQEQVAKYLGVTTPAVNKWEKGISYPDISLLPALARLLDTDLNTLLSF | -2.1 |
| HMESGNLIFTNAPIADVVNAIETRYGKKLQASNQTSDLQFTGIFKNTDEFSTVVKTIEIALGLQFEV | -1.19 |
| HMEVKRANRKERFLEALPYQFSRQDYLNIADKNKIPHKTAEGYITKFVDAGLIHREAHNNYTNPTKA | 0.146 |
| HMGTYSKQDLLQLIGRYPDGIGKREINLAFSKGTKIRNLLNIELNELLNERLITLSQGGLYIKP | -1.56 |
| HMPDFLAELAARMERDAVTEAQIRQVVAQKGHYPEEVSPAQYHPDFFRQWLFPHWEKIVDVIRSSPEYTP | -0.0503 |
| HMIDAHTTLLAKRLESKGFLALTDKSSAEEIYEEFGISKKAFKKALGALYKERLVRIGEDGVVWM | -1.43 |
| HMEPPAPAPDIPYPSRVTVRREVDGWPHYYGTWTRTPPVLGYEGIWLVGVSLDGKVQFVPVDDVTIA | -0.627 |
| HMSESAGKAFDLLFYLAKAGETVSLARLSRETGMNKATALRYLNVLESKGVVERSKLGWTLGLSLFELGSK | -2.05 |
| HMNVPFGFDEVNGKLVKNEEEQAIISEIKSLKNKGLSLRKIAEALNGRGIATKNGKAWTAVQIQRIA | -0.0386 |
| HMDSTSEILKVIQNIVKKEDPYHPLSDDKISNLLNDLDYQISRRTVAKYRDILTIPSSSKRRKL | -0.432 |
| HMTPQDYEYLRKLLKDQSGLDLSVDKQYLLESRLVPLSRKAGLAGIPELVQKMKAGSASLTAQVVEAMTT | 0.00429 |

| Sequence | soluble fraction (log2) |
| --- | --- |
| HMRSLVDRSVQAVTDHIRENALRVGDSLPGEAYFATSLGVSRAVMREAFGALAALRVIDVGNGRKPRVGAI | -0.58 |
| HMEKLPRYILPGVPKVKSINISSALDGLVQDYSREFNISQKDIFQIALVEFFKKYGYHNAVKAVL | -0.314 |
| HMDKEQVTFIFRDIDIALRSLDYPIKDIKNTLNIIKSEFSNSKSTELNEQKINFENILKEAISILENND | -0.627 |
| HMKNQQLFNIGDRFQVDGVAYRMEKLFPENGTVEVYNLGVGRHKTMSFEEILALWNSGKLLFEI | -0.185 |
| HMKPSKTVYTTANLNLRNGASMSAAVYTSVSRGTALATTGRTTSGWTQITHRGRTLWASSKYLTTTTPP | -2.68 |
| HMEIEEIDYGTFLQMVEDGVVEKIELTDTQIFLTSTVDNDDKVYTTGVMPDQDLTNRLIEAGVVNFGKVV | -0.21 |
| HMDKWFPVSSDHKVQVGDYLRTADGLVKVEATHNEYGTFYGKIITAIHDDVVKGETYEYRIDDVQVLA | -0.0324 |
| HMDHWQSVNSALELLEVSRRTLYDYISRKKLQTKKEGKYRYVWIDDDVIEEIKTSKSAYIEINN | -2.19 |
| HMPQISQDDLMEAGLIVGKEAKQRRIKLGEILGIGYVNAKQLPKRLQLFQVAKSDFEQAVQQIDG | -0.0431 |
| HMSSVEVWINGKSSGLTSDNRAQILQQLPAESIERIEVIDNPSAKFSAEGSAGIINIVLKKD | 0.157 |
| HMDEPGTGFKWREDVLLRVMEANGIDTSHRDDFVRHAVKFDNDDNLYLKKAEIEDAAAAWVSEHS | 0.0272 |
| HMVGNYYDILGVPETATQDAIKKAFRSLAQQHHPDKNPDDPGAEAMFKKVSEAYQVLSDPDKRQTYDASL | 0.00894 |
| HMMVIMRANATEPQIANVVAYVEKNGLNAHLSRGAERTVIGVVGDIRRVSKETFELMDGVDSVMRIS | -0.356 |
| HMEIITIVSDINGKRIDAWLSEKLENYSRSFIQKLIQNENVKVNNNIVKANYKLKNGDAVAVSIPEPV | ≥ 0.62 |
| HMNLDYKQFQVFNNIETLNTFTNLLSDNKIDFEVENNSKIFDPSFANNDFEKEYIVKIHPNDFEKVY | 0.064 |
| HMYFDDEELDTYKGRASNAYSPDETAQFEEVMTTMRPDEVAAWLRSLQLRGINLPDELKDEAIMLVE | -0.0866 |
| HMSRVFSPSELEIRHAQDVFQALEEAKRQGKGAVSLNGKMIDAPIVARAKLVLEAAAAIYGED | -0.362 |
| HMPIQLLSEKYMDEHWDELDKDEVSLYQNMSIRFLLKHEDDINWKLYSTNPFISIDTIDFFKDKISWVNI | -2.57 |
| HMDDVIEVEGKVVEVLPNTKFIVELANSHKITAHISGKLRMNYIRIMKGDNVTVEMSPYDLTKGRIIWRS | -0.00397 |
| HMPELTASDEADLKALVGGDQGFEQMANWARSNLGEEEINRFDAVVDSNNKDAIHMAIQAMQARMNA | 0.0174 |
| HMNPMRYLVVPSQETETWKEYLVSKEWLERKYRIETEGDNRAIPLSNLFPKIVPIELSNLEIIEKEAFS | -0.24 |
| HMELSAQEIGRRLRIARENADIRQDDAAQVIGMSRPTLVSIEKGVRRVRIQEIQMLARHYGVSVNALLR | -2.14 |
| HMGQISDESVLKEMVVQLIADNPKEVASYLGGKETLLQWFMGQVARATKGKADPQAVKQLLLDEFEKLK | 0.092 |
| HMTFNLDVDGDDQVTALGDGLMIIRKLFGATFAGDALTNKAISPDATRTTDEIHAYIEKGITSGVLD | -0.268 |
| HMDDPITVAYRETEDAIAQVQREGFPVEMPPANSYIRRIQHELAGRFNLDSESYGDEPERRVRIRPQQ | -0.00875 |
